1 molecule from US20140105902A1 (SAMSUNG ELECTRONICS, published 2014) can be followed below.

The assay addresses c-Met, endogenous in human cell lines (NCI-H441, EBC-1, MKN45, HCC827 ER15, HEK293) (human, UniProt P08581 25-1390). Briefly: cell-based or functional assay.

Chain of c-Met, endogenous in human cell lines (NCI-H441, EBC-1, MKN45, HCC827 ER15, HEK293) (P08581 25-1390): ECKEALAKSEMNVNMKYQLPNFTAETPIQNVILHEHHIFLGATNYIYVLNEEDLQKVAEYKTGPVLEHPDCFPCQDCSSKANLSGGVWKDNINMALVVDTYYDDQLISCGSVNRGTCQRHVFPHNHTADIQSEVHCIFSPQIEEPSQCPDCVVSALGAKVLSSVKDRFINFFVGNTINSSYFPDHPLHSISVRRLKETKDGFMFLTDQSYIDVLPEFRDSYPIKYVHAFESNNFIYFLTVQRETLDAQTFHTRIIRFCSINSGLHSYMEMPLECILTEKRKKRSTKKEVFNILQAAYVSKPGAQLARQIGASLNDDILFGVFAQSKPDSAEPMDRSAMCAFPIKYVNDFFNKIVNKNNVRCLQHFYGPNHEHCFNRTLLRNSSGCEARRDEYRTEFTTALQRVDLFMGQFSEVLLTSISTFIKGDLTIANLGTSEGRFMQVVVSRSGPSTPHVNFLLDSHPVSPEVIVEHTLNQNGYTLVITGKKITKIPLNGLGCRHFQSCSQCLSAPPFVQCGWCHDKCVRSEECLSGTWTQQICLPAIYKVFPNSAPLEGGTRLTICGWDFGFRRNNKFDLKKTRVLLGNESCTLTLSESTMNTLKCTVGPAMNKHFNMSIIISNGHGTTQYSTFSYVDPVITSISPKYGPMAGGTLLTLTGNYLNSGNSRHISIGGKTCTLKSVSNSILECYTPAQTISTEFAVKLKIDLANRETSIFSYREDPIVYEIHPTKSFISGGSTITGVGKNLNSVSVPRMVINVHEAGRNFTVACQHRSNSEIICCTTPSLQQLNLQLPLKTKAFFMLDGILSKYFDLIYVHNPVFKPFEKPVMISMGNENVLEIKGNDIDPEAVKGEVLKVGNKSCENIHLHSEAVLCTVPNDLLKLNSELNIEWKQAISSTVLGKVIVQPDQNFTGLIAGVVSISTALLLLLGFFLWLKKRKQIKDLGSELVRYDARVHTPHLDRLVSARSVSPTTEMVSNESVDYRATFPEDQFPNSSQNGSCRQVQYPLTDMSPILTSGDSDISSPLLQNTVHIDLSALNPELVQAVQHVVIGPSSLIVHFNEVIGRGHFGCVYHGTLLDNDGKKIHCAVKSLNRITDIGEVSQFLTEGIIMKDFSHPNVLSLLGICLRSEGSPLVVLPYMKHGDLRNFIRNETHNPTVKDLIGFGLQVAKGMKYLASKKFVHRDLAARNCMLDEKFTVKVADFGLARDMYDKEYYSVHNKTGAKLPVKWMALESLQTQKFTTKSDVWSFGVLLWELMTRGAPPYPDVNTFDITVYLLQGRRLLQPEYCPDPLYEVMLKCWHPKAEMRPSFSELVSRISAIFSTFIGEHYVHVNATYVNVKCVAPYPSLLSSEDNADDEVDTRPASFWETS

B1: anti-c-Met antibody L3-1Y (huAbF46-H4-A1 (U6-HC7)) (antibody, V domains shown)
VH: EVQLVESGGGLVQPGGSLRLSCAASGFTFTDYYMSWVRQAPGKGLEWLGFIRNKANGYTTEYSASVKGRFTISRDNSKNTLYLQMNSLRAEDTAVYYCARDNWFAYWGQGTLVTVSS
VL: DIQMTQSPSSLSASVGDRVTITCKSSQSLLASGNQNNYLAWYQQKPGKAPKMLIIWASTRVSGVPSRFSGSGSGTDFTLTISSLQPEDFATYYCQQSYSRPYTFGQGTKVEIKR
With B1, the “total c-Met level by ELISA, Cbl siRNA-transformed EBC-1 cells, 5 ug/ml, 24 h, relative to control IgG” value was roughly 30%.
